Consider 65 molecules from patent publication US20170298096A1 (CANIMGUIDE THERAPEUTICS, published 2017).

No end group written: not given here.

The labels stand for the following.
T1: His-tagged P3028 (human, also: His-tag, terminus and sequence not given here)
T1 construct: in solution at 0.5 ug/mL over the peptide cards; found with anti-His-tag antibody and rabbit anti-mouse peroxidase (rampo); also called PGE73; not shown: His-tag
T1 peptide: VFDEFKPLVEEPQNLIK
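Note: score is the raw OD at 405 nm from peroxidase colour with ABTS, imaged by CCD camera before and after staining, with wells showing air bubbles set to zero.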

The test addresses T1, His-tagged P3028. As to the kind of experiment: PEPSCAN chip ELISA, His-P3028 in solution. (In an ELISA, binding on a coated surface is turned into a signal by an enzyme label.)
Method: After washing, the peroxidase substrate 2,2′-azine-di-3-ethylbenzthiazoline sulfonate (ABTS) and 2 μL of 3% H2O2 were added. The binding capacity of the mAb was measured as a color development at 405 nm (optical density, OD405). The color development was quantified with a charge-coupled device (CCD)—camera and an image processing system.
The OD405-values obtained by a CCD-camera was considered as raw data values (“rampo values,” “rampo units,” or “rampo scores”). […] First the CCD-camera made a picture of the card before peroxidase coloring and then again a picture after the peroxidase coloring. […] These values were copied into an excel file and labeled as a raw data file. One follow-up manipulation was allowed. Sometimes a well can contain an air-bubble resulting in a false-positive value. If manual inspection of the cards detect an air-bubble the value are set to 0 for that well.
KKSDTFFVKLSLFTER [SEQ ID NO 295]: the “RAMPO Score” value was found to be 393 rampo score. As for KKTDTFFVKLSLFTER [SEQ ID NO 296], the “RAMPO Score” value was 451 rampo score. For the molecule KKLDTMFVKLSLFTER [SEQ ID NO 315], the “RAMPO Score” value stood at 467 rampo score. Take KKLDTFFVKLSHFTER [SEQ ID NO 351]: the “RAMPO Score” value amounted to 460 rampo score. The value for KKLDTFFVKFSLFTER [SEQ ID NO 333] was 403 rampo score; that for KKLDTVFVKLSLFTER [SEQ ID NO 319] was 547 rampo score; that for KKLDRFFVKLSLFTER [SEQ ID NO 309] was 430 rampo score. With KKLDTFFPKLSLFTER [SEQ ID NO 329] the figure was 456 rampo score. With KKLDMFFVKLSLFTER [SEQ ID NO 305] the figure was 475 rampo score.

As to KKLDTNFVKLSLFTER [SEQ ID NO 316], the “RAMPO Score” value was 446 rampo score. The value for KKLDTFLVKLSLFTER [SEQ ID NO 320] was 517 rampo score; that for KKLDTFFVKVSLFTER [SEQ ID NO 343] was 658 rampo score. With KKLDTFFVKLSTFTER [SEQ ID NO 358], the “RAMPO Score” value came to 437 rampo score.

As to KKLDNFFVKLSLFTER [SEQ ID NO 306], the “RAMPO Score” value came to 436 rampo score. Take KKLDTFSVKLSLFTER [SEQ ID NO 323]: the “RAMPO Score” value worked out at 700 rampo score.

Consider KKLDTIFVKLSLFTER [SEQ ID NO 314], for which the “RAMPO Score” value was 466 rampo score. Turning to KKLWTFFVKLSLFTER [SEQ ID NO 302], the “RAMPO Score” value was 443 rampo score.

For the molecule KKLDTFFVKASLFTER [SEQ ID NO 332], the “RAMPO Score” value is 426 rampo score. With KKLDTTFVKLSLFTER [SEQ ID NO 318] the figure was 481 rampo score. With KKLDTFMVKLSLFTER [SEQ ID NO 321] the figure was 712 rampo score; with KKLDTFFVKPSLFTER [SEQ ID NO 338], 436 rampo score; with KKLDTFQVKLSLFTER [SEQ ID NO 322], 511 rampo score. For KKLATFFVKLSLFTER [SEQ ID NO 298], the “RAMPO Score” value came out at 494 rampo score. In the case of KKLDWFFVKLSLFTER [SEQ ID NO 311], the “RAMPO Score” value came to 418 rampo score.

For KKLDTFFVKLSNFTER [SEQ ID NO 354], the “RAMPO Score” value was 462 rampo score. The value for KKLDTFFVKSSLFTER [SEQ ID NO 341] was 351 rampo score; that for KKLDTFFRKLSLFTER [SEQ ID NO 330] was 365 rampo score; that for KKLDSFFVKLSLFTER [SEQ ID NO 310] was 458 rampo score.

For KKLDTFFVKLSVFTER [SEQ ID NO 359], the “RAMPO Score” value was 545 rampo score. KKLDTFFVKLQLFTER [SEQ ID NO 348]: the “RAMPO Score” value was 768 rampo score. Take KKLETFFVKLSLFTER [SEQ ID NO 299]: the “RAMPO Score” value worked out at 417 rampo score. With KKVDTFFVKLSLFTER [SEQ ID NO 297] the figure was 377 rampo score; with KKLDTFFVKLHLFTER [SEQ ID NO 345], 535 rampo score. The value for KKLDTFFVKLTLFTER [SEQ ID NO 349] was 520 rampo score. With KKLDTFFVKISLFTER [SEQ ID NO 335] the figure was 415 rampo score; with KKLDCFFVKLSLFTER [SEQ ID NO 304], 449 rampo score. As for KKLDPFFVKLSLFTER [SEQ ID NO 307], the “RAMPO Score” value was 427 rampo score. The value for KKLYTFFVKLSLFTER [SEQ ID NO 303] was 422 rampo score. For the molecule KKLDTFFVKMSLFTER [SEQ ID NO 336], the “RAMPO Score” value worked out at 460 rampo score. The value for KKLDTFFVKQSLFTER [SEQ ID NO 339] was 470 rampo score; that for KKLDTFFVKLSSFTER [SEQ ID NO 357] was 478 rampo score; that for KKLDTFFVKLSRFTER [SEQ ID NO 356] was 483 rampo score. With KKLDTFFVKLSIFTER [SEQ ID NO 352] the figure was 456 rampo score; with KKLDTFFVKNSLFTER [SEQ ID NO 337], 365 rampo score. With KKLDTFFGKLSLFTER [SEQ ID NO 327] the figure was 379 rampo score.

With KKLDTFFVKLSWFTER [SEQ ID NO 360], the “RAMPO Score” value was found to be 409 rampo score. On to KKLDTFFVKLNLFTER [SEQ ID NO 347], for which the “RAMPO Score” value came out at 451 rampo score. With KKLDTAFVKLSLFTER [SEQ ID NO 313], the “RAMPO Score” value is 575 rampo score. The value for KKLDTFFLKLSLFTER [SEQ ID NO 328] was 411 rampo score; that for KKLDTFFVKGSLFTER [SEQ ID NO 334] was 495 rampo score; that for KKLDTFFFKLSLFTER [SEQ ID NO 326] was 358 rampo score. Take KKLDYFFVKLSLFTER [SEQ ID NO 312]: the “RAMPO Score” value was 425 rampo score.

In the case of KKLDTFTVKLSLFTER [SEQ ID NO 324], the “RAMPO Score” value was 517 rampo score.

With KKLDTFFVKRSLFTER [SEQ ID NO 340], the “RAMPO Score” value is 439 rampo score.

On to KKLDTFFVKLMLFTER [SEQ ID NO 346], for which the “RAMPO Score” value was 744 rampo score. KKLDTFFVKLSQFTER [SEQ ID NO 355]: the “RAMPO Score” value was found to be 651 rampo score. The value for KKLDTFFVRLSLFTER [SEQ ID NO 331] was 374 rampo score; that for KKLDTFVVKLSLFTER [SEQ ID NO 325] was 527 rampo score. With KKLDTFFVKLSMFTER [SEQ ID NO 353], the “RAMPO Score” value was determined as 499 rampo score. With KKLDTFFVKLSAFTER [SEQ ID NO 350] the figure was 462 rampo score; with KKLDTPFVKLSLFTER [SEQ ID NO 317], 497 rampo score; with KKLDTFFVKTSLFTER [SEQ ID NO 342], 399 rampo score. With KKLDQFFVKLSLFTER [SEQ ID NO 308] the figure was 535 rampo score; with KKLITFFVKLSLFTER [SEQ ID NO 300], 430 rampo score; with KKLDTFFVKYSLFTER [SEQ ID NO 344], 382 rampo score.
